Measurements reported in a protein production outcome set (Wang et al. 2014).

Assay: label from the status in PepcDB records

Sequence	protein production
MDMDEKDVVETEEESFAELFEKSNSETQRLRPGSKVEGKILKIGAEWVFIDIGKKGEGVMERKELQDAEGNLTVAEGDTITAWFTGSVRNEMRFTTKLGAGAAANAQLEEAHRSGIPVEGFVVKEIKGGFEVRLSGTTRAFCPFSQISLRRAENPAEFVGKHLLFKVTEYSERGRNIVLSHRQILEEEQRVKREALKEVLLEGMTVTGTVTRLADFGAFVDLGGVDGLIPVSEVGWTRVKHVRDVLSVGEQVSVVIKKIDWEAGKISLSLKDTLADPWTTVAEQFPEGSYHTGTVARLAAFGAFVTLAPGIDGLIHISKLGKGKRINHPSDVLKEGETVEVKVDGVDREARRLSLALAEVSRAAEEEEKSVASFRQQATSSSKESMGSFGDLLKAKIEEKRLEHHHHHH	failed
MDMFGVAVLIFLVTDPFGNIAVFLAALKGVAPGRRLRVAFRELAFALGLLLLFLTLGEHILSGLGLSREATGIAGGIILFVIAMRLIFPSPQGLLGEVPDGEPLLVPLATPAVAGPSALAMLITLRTTFDGPLWELYLAVVLAWAATALILLQAAFLQRFLGPRGLTAIERLAGMLLIMLSVDMLLDNLRSVLHIAA	failed
MDMKKYILSLSLLTVINSSAIATTQEGEEAYNKGYYEKAFILLSPEADKGDAKAQYLLGKMYYNAQGVTYNPEKTEQLLLASANQGNVDAQVLLAGFYWYLNTPEGYKKAFEWYQKAADQNNADGQYGLGYMYDTGTGVPQNSDTAMVWYKKAAEQGNSNAALAIGYNYDTGTGVKKDKTQALNWYAKAADLGNASAQYNLGLMYEQGDGVPKDYQKAAEYFEKAANQGHAKSQLELGYLYDSGKLGKSDLQKAAFWYQKSADLGNANAQFNLADMYFYGDGVGKSLEQSVYWMQKAAEQGYGKAQNQLGIYYRDGIGVAADPVKAYAWFTAAKNNGFEKAASNASDLEKSMNPEDLSKARILGQQYTDNYKAKK	failed
MDMKRRIHLELRNRTPAAVRELVLDNCKSNDGKIEGLTAEFVNLEFLSLINVGLISVSNLPKLPKLKKLELSENRIFGGLDMLAEKLPNLTHLNLSGNKLKDISTLEPLKKLECLKSLDLFNCEVTNLNDYRESVFKLLPQLTYLDGYDREDQEAPDSDAEVDGVDEEEEDEEGEDEEDEDDEDGEEEEFDEEDDEDEDVEGDEDDDEVSEEEEEFGLDEEDEDEDEDEEEEEGGKGEKRKRETDDEGEDD	not failed
MDMKTKLQTIIGMFQITAWDETSYFESDNGAKLTQAVITQSYQGVLQGHSEIRYLMSYQDNANATFVGFEHFTGSLGDKKGSFILQHKGLFAAGVASSEFELVERSATGDFVHLVGKGHFVSTENGQANYQITLQDS	not failed
MDMTYYDHGTPAERWERARMFFDAKDYAAAARVLDGLVAQVPEQTGPRLLLARSYYHSAQLRRAEAELRVVVERDPVEHYARLMLGRTLERQGRQEEADAQLRIASALAGDFAEL	failed
MDMYSMKISEGVERIDGVTANSYLLTLDGKNILIDTGTAGGGKKIIDYFNKNGTKPDYVIVTHHHADHVGGLKEISERFNPEIYVPDLEMKIIRGEEDPPKPRSFFGRMITGMLKFEPVKDVKPVSKASIPGIEEMATPGHTIGSTSYIVEDLHILFSGDAAVESGGELKINKSFSYEINSAERSLEIIKGMKGYLVLPGHGDKVQLLEHHHHHH	not failed
MDNEEYYKILGVAKSASQDEIKHAYRKMSKKYHPDLNHQPGAEDKYKQVQEAYETLGDPQKRAAYDQYGKAGANANNGQGGFGGFQQSGFNFNGQDFGDFSDIFSQMFGGSFNPNAPRKGRDLQYRINLTFEEAVFGKETEIKYVRQESGGNSKEHTVKVTIPAGVETGQQMRLAGQGEAGTHGGPYGDLYVEFIVGKSKDGFERQGANIYLEEPINFVQAALGDKIKVKTVHGDVELTIPAGTQTDTEFRLRGKGAPYVNSSRIGDEYVKVIVQVPKRLNEKEKKALKTYADLRGENVNPQKRRGLFG	failed
MDNKVSILNQPKPFKMIFFIELWERFGYYGLQGILAVYFVDKLGFSMQDSFVTFGAFAALVYGLVSVGGYVGDYVLGTKRTMVFGAVVLALGYFLMGFSILNPNFIYLALGAIAVGNGLFKANPSSLLAKCYEKGDSRLDGAFTLYYMSINIGSLVSLSISPVIANNYGYEYAFVICGLGLIASLFSYFSLRSTVQGIGSEPDALPLNKTKALIVLIGTVASTLVCAWLLQNIMMANLALGLIGVGVVGFFLKETFKETGEQRNKMIVAFILMLQAIIFYVLYAQMPTSLNFFAINNVHSELFGIDINPVSLQALNPFWVIFCSPILAYLYTYYGNQNKDLSMPGKFTVGMFMCAFGFLSVAAAGNWFADQAGMVSVWWMILVYLFQSLGELMISGLGLAMVASLVPQRLMGFTMGAWFLTQAASFIIGGYVATFSATPEHLTAPLDTLPVYTELFQNIGFVTLAVAIVMAFTAPKLNKMMTSSQPEDAELVEQP	failed
MDNLFTPSAKSVLVLAQEQAKYFKHQAVGTEHLLLALAIEKNGIANKVLQQYAVSEDDIREEIERFTGYGTLSNVGKDTYLPYSPKAKEILSVAGDEAKRLGANKIGTEHLLLAMLSDESILSSRILMNLNLDLGQTRKVVLRKLG	failed
MDNMAIADRRRLRRKLTFWRVAAVLLLVVGAFGLYRFFWQGPQQSAKPHIARIEVSGLITDNTELLERLDKIAKSDNVKGLIVSISSPGGTTYGGERIFKVIRSVAEKKPVVSDVRTLAASAGYMIASAGDVIVAGETSITGSIGVIFQYPQLGQLMEKLGVSLQEIKSSPMKAEPSPFHEAPEEAKTMIRAMVMDSYGWFVDLVADRRKLPREEVLKLADGSIFTGRQALANKLVDTLGGEKEVRAYFETRGVAKDLPIVEWRAPSSNSPFALFSVAQIAKLLGYDDLIPFAGPSQLGADKLFLDGLVSVWQVEPRLEHHHHHH	not failed
MDNSGKEAEAMALLAEAERKVKNSQSFFSGLFGGSSKIEEACEIYARAANMFKMAKNWSAAGNAFCQAAQLHLQLQSKHDAATCFVDAGNAFKKADPQEAINCLMRAIEIYTDMGRFTIAAKHHISIAEIYETELVDIEKAIAHYEQSADYYKGEESNSSANKCLLKVAGYAALLEQYQKAIDIYEQVGTNAMDSPLLKYSAKDYFFKAALCHFCIDMLNAKLAVQKYEELFPAFSDSRECKLMKKLLEAHEEQNVDSYTESVKEYDSISRLDQWLTTMLLRIKKTIQGDEEDLR	not failed
MDNWQDITDDRLVRPIHPGEVIADILDDLDINTANFAEILGVSNQTIQEVINGQRSITVDIAIRLGKALGNGPRLWLNLQQKVDLWYALQSHKEEYEQVMTLV	not failed
MDPEEEAFDAIRRFARAENINAASVTAIGAFATATLAFFDLKTQDYQEIPVAEQSEVLTLLGDITLDENGVPNPHLHVVLGFADGSTRGGHFLKGLVRPTLEVVIRETPAELRRSYNREFGIALIDPAKLEHHHHHH	not failed
MDPFDAGQAQRGNGSTESSGREDREGEEAQWVGVLTHAVLAADDPANLGDSAPAEGGHDQMLEEWAAEEGQNPLEDRQEAVRRVNAWNQGELNLAMLRLTSLPPLPAGLHSLDASFNRLTSLPETLPDALNSLNVNGNQLVSLPALPAGLALLDVWSNRLTSLPETLPAALEGLNVGNNQLTSLPEALPARLESLDVSVNQLTSLPETLPASLGSLDVGVNQLTSLPETLPTSLGRLYLNDNQLTSLPTGLLTQLGAAAEVVVSGNPLPQEMLMNLDTIQSTDGYAGPRVVFDLSETHEDQWEDAAVAPFPLETVAAESLPEAVADWLNGDPKEGDPEVVAKWQSFAEEPGAQQYADFLNGLRNTVNSGNEGFQQGVANDLRQAAANPQLRAQYFQLALDANESCADRRTLTWNGMQTARLIANVENGLYDNNEGVAALVDLGRVMFRLEALGGIAREKVQSLRTGGTINNVDEIEVYLAYQATLRERLGLQHIAPDMNYFYDSHLTEEDIDRAETSVRSKEATGFADYLATDWKPWDDVVLRIEPEHHATMEEKLADALEEEFPGRLKQKLVEAGLIGAEADVVADAEREFGPQVSKDIAREIKGALRDTVLNKRGLSL	failed
MDPLLVTVITTCGKVFQFHVDRRRNVGYLKKRISKEGKGFPEVDDQEILFKGEKLDDNRIIDGICKDGNSVIHLLVKKS	not failed
MDPSSVIWIFFVFLFFYPQVLFRYRLLQRYKFIKQFEAVRKTRAIVMIHRQEQLALFGIPLYKYITIEDSEEILRAIRMTPEDMPIDLILHTPGGLVLASEQIAIALKEHKAKTTVIIPHYAMSGGSLIALAADEIIIDKNAVMGPVDPQIGQYPAASIINAINTKYTDELDDETLILGDIARKAIVQVKEFVYDILKDKMGEEKAKYLSETLSTGKWTHDYPLTINKLKDLGIEVNTELPNIVYELFDLYRQPVNQRPSVQYVPVPYKRGTK	failed
MDQLSEKQIWYYHIIPEYQTEKSFYACVRRSGMIKFDTFYFPHMLSARETQRSIKFGDGVWSGCLYDPDIYTDGKISIQGVGGVLFPREAEIGGCVCLCLIFLIKLGLSTKYMKSHVSFDVSCDL	failed
MDQNAILLALGGIGAAALLSQWLAWRLRLPAILFLLLSGIVAGPLLGWLDPDEMFGPLLFPLVSLAVALILFEGSLTLHFSEWKEIGTVVHRMVTIGALSTWGVIALAAHYLLDFSWEMALLFGTLTLVTGPTVIVPMLRVVRPKAAVANILRWEGIVIDPIGALLAVVVYSFIISSGEGDGWLHSLQTFGGVILCGSLFGILGGWALGIVLRRHWLPDYLHNLATLAAVLGVFIASNRVMHESGLLAVTLMGMGLANMKGVDVRQILHFKENLSVLLISGLFILLAARLDINALLGLGPAALLVLLLIQFVARPLNVALSTWGSPLSWRERALLSWIAPRGIVAAAVSAIFAIRLSAEGHAQAALLVPLTFLVIIGTVVLQSATARPLARLLKVAEPSPSGYLIVGANPVGRAIGKALKSLGSRVLLTDSSWENIRAARMDNLPTYFGNPTSQHAEAHLDLVGIGHLLGVSPAGELNTLAAMRFRHEFGHRQLFGLPTSQEAKRTDKHRSSDEHRGRPLGQRPLTYAQFASLLSRGAEIRTTLLTDTFGWNDYQALHGESAILLFARDPNGRMHVATPQSTLAPGTGWTLLSLIDAEPSVSKSQATEIAD	failed
MDQSTRARTRTAFAIDAVGQGAKAAVKAVWWTATGGLARSLTRPTEGPQARRFTPAAPPPVPGSLRRAYLEAFEKDARDVAAGLYPAIEDGPIRPSAALREAVDFLVDAFEVDQRRRRGDGAEVRNAADPSVYPNYYRQNFHYQSGGWFTAESAGRYDAQVEALFSGTAGAMRRRGLSLLARHWRGRDHRDAKILDVACGSGAFLKDLSAAFPRAALAGLDLSEAYLAKARKRTAVGGVKAKAETLPFGDATLDAVTCVYLFHELPPRVRPVVAASLARVLKPGGVLVLVDSVQPVDTPDLARLLEAFPVYFHEPYYSSYAETNLEALFAEAGLRLLDQDCAFLTKAMLFVKPGG	failed
MDRADLRIAVLMGTKDGAPFIDEQLQSLLAQSHPLIDLWISDDGSVDGTVPIIEAWKSRWTKGRVTLVQGPREGFAANFRSMILDRRIDADFYAFSDQDDVWEPDRLESAVQWMQAFGAEPPLMFCSRTATMTETGSLAGHSPLFRRPPSFRNALVQSIAGGNTILLNRAARDLLARASARTGFVSHDWWAYLVVTGAGGVVHYDPRPLVRYRQHAANLVGANVSWAARVSRLGRLFKGEFADWTDLNLAGLAVNRDLLTPDAATCLDLFASGRQGSLFQRLRTLLVSGVYRQTLAGTLGLYLAFVLGRILEHHHHHH	failed
MDRGGVLRVAAAALPAYAYFYNVGSIGFWLPLHVRELGWPYTYITLIATWYFVAVTLATPLVGLLSDLTRRPGYILAGGMAVVAATSVAIPHVENPPLLMALRALQGLGLAVGLPIALGSLSLIQGVRRGVASTVIASGLGMSGGAFLSGLMVEYLGFPALFYAAAVPAALSTLVALGWRPPPPPSGSPGLLAALRSMPWEVLVVMAGIAVRNTFASGVFSVVSIIFNKIVGISYTATGVVLAINPAVQASVTTVFERIMRGRALLLYSTGLSGTALAFYLYLTAGSALDLAAAQIALGAFYGATVVSGNTMIIALAPSEIRYTASSLYTFAFNIGWILGTSIAGKVMDAAGVDAWIKLAIAGTLVSGLIPLTLLASPRARRI	failed
